# Reference: paper PMC12288907 (2025)
# Legend:
# [1] = target: T1, recombinant soluble trimeric H7 HA of A/Shanghai/02/2013 H7N9 (SH13 H7) (Influenza A virus A/Shanghai/02/2013 …); test: BLI
# [2] = target: A/Shanghai/02/2013 H7N9 (SH13) hemagglutinin HA1, monomeric (Influenza A virus A/Shanghai/02/2013 …, UniProt R4NN21 1-320, biotin (EZ-Link NHS-PEG4-Biotin, antigen:biotin 1:1) in the BLI only); test: BLI
# [3] = target: T1, recombinant soluble trimeric H7 HA of …; test: ELISA
Binder,Kd [1],Kd [2],EC50 [3]
"recombinant H7-235 IgG1 (rH7-235 IgG1) (antibody, V domains shown) VH: QVQLVESGGGVVQPGESLRLSCAASGFAFRTYGMHWVRQAPGKGLEWVGVIWYDGSNKYYGDSVKGRFTISRDNSQNTLYLQMNSLRAEDTAVYYCARNGERWRVEDYYYGMDVWGQGTLVTVSS VL: EIVMTQSPLSLPVTPGEPASISCRSSQSLLHSNAHNYLDWYLQKPGQSPQLLIYLGSNRASGVPDRFSGSGSGTDFTLKISRVEAEDVGIYYCMQALQTPITFGQGTRLEIK",< 0.02 nM,< 0.02 nM,0.03 nM
"recombinant H7-235 fragment antigen-binding region (rH7-235 Fab) (Fab, V domains shown) VH: QVQLVESGGGVVQPGESLRLSCAASGFAFRTYGMHWVRQAPGKGLEWVGVIWYDGSNKYYGDSVKGRFTISRDNSQNTLYLQMNSLRAEDTAVYYCARNGERWRVEDYYYGMDVWGQGTLVTVSS VL: EIVMTQSPLSLPVTPGEPASISCRSSQSLLHSNAHNYLDWYLQKPGQSPQLLIYLGSNRASGVPDRFSGSGSGTDFTLKISRVEAEDVGIYYCMQALQTPITFGQGTRLEIK",2.12 nM,,0.16 nM
